Test results reported in patent publication US20210380675A1 (Kyowa Kirin, published 2021).
Each block holds one binder with its values, some of them ahead of it.

Tests used:
human IL-36γ, truncated [1] = biological target: T1, human IL-36γ, truncated (human, UniProt Q9NZH8 18-169); assay: cell-based or functional assay
T1 sequence: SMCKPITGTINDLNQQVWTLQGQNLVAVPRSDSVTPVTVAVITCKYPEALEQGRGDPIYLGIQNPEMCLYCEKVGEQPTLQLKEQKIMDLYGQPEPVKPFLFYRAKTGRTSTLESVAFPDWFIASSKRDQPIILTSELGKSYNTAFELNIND

[2] = biological target: T2, human IL-36α(R12), truncated (human, UniProt Q9UHA7 6-158); assay: cell-based or functional assay
T2 chain: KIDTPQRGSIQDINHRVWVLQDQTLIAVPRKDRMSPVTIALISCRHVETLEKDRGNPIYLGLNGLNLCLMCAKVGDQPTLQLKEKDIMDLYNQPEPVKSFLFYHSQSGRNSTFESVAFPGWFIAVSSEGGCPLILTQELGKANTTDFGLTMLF

[3] = biological target: T3, cynomolgus IL-36α, truncated (cynomolgus macaque (Macaca fascicularis), UniProt Q9UHA7 14-158 (human entry), limits assumed); assay: SPR, Biacore, 1:1 Langmuir fit
T3 construct: Untagged after removal of the His-SUMO tag; also called cynomolgus IL-36 alpha; cyIL-36alpha
T3 chain: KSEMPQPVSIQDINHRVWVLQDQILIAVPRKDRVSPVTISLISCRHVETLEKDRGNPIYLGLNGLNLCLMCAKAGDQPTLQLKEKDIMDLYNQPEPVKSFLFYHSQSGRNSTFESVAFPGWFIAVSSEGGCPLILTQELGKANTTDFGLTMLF
Procedure: (§1) The humanized antibodies obtained in Example 6 were tested for their binding to recombinant human or cynomolgus macaque IL36a and IL-36γ in Biacore assays. The association time was set to 60 seconds, and the final dissociation time was set to 600 seconds. Equilibrium dissociation constant KD (kd/ka) of exemplary antibodies was determined using a 1:1 Langmuir fit model (see Tables 17-18 below).

[4] = biological target: T4, cynomolgus IL-36γ, truncated (cynomolgus macaque (Macaca fascicularis), UniProt Q9NZH8 18-167 (human entry), limits assumed); assay: SPR, Biacore, 1:1 Langmuir fit
T4 construct: Untagged after removal of the His-SUMO tag; also called cynomolgus IL-36 gamma; cyIL-36gamma
T4 chain: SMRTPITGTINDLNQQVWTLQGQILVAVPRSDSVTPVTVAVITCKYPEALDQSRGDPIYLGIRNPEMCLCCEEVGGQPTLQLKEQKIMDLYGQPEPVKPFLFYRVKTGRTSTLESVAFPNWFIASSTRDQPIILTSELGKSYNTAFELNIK
Procedure: as §1

human IL-36γ, truncated [5] = biological target: T1, human IL-36γ, truncated; assay: SPR, Biacore, 1:1 Langmuir fit
Procedure: as §1

[6] = biological target: T2, human IL-36α(R12), truncated; assay: SPR, Biacore, 1:1 Langmuir fit
Procedure: as §1

human IL-36γ, truncated [7] = biological target: T1, human IL-36γ, truncated; assay: cell-based or functional assay; remark: listed apart in the source
[8] = biological target: T2, human IL-36α(R12), truncated; assay: cell-based or functional assay
[9] = biological target: T3, cynomolgus IL-36α, truncated; assay: SPR, Biacore T200, antibody on chip, IL-36 as analyte, 1:1 Langmuir fit
Procedure: (§2) Antibodies were further tested for their binding to recombinant human or cynomolgus IL36α, IL-36γ in Biacore assays. In order to kinetically analyze the binding activity of the IL-36α and IL-36γ dual antagonist antibodies, the binding activity to human and cynomolgus IL-36α and IL-36γ was measured by surface plasmon resonance method (SPR). All of the following manipulations were carried out using a Biacore T200 (GE Healthcare Life Sciences, Pittsburgh, Pa.).
(§3) To determine antibody affinity to human and cynomolgus IL36, recombinant antibodies were immobilized on a CM5 sensor chip (cat# BR100012, GE Healthcare Life Sciences, Pittsburgh, Pa.) by an amine coupling chemistry. In particular, the kinetic assay was carried out by immobilizing on the chip approximately 2000 RU of recombinant antibody. Thereafter, recombinant human or cynomolgus IL36 proteins, serially diluted from a high concentration, were allowed to run at a flow rate of 30 μL/min onto the chip for 420 seconds. The dissociation time was 3600 seconds and the binding curves were measured at 25° C. Regeneration was performed with 10 mM glycine pH 1.5 for 30s. Alternatively, the analytes were injected with increasing concentrations in a single cycle, the surface not being regenerated between injections, using a method referred to as “single cycle kinetics.” In particular, either anti-human or anti-mouse Fc specific antibodies were immobilized on a CM5 sensor chip (cat# BR100012, GE Healthcare Life Sciences, Pittsburgh, Pa.) by an amine coupling chemistry. Thereafter, IL-36α and IL-36γ dual antagonist mouse/human chimeric or mouse antibodies were captured at approximately 200 RUs, followed by injections of increasing concentrations of recombinant human and cynomolgus IL36 proteins. The association time was 300 seconds, and the final dissociation time was 1200 seconds. At the end of the analyte injections, the surface was regenerated with either 3M MgCl₂ (anti-human Fc capture antibody) for 30 s or 10 mM glycine-HCl pH 1.7 for 180 s (anti-mouse IgG capture antibody).
(§4) The raw data were double referenced by subtraction of the signals from a reference flow cell without immobilized ligand and a buffer blank. The sensorgram corresponding to each concentration was obtained.

[10] = biological target: T4, cynomolgus IL-36γ, truncated; assay: as above
Procedure: as §2, §3, §4

human IL-36γ, truncated [11] = biological target: T1, human IL-36γ, truncated; assay: as above
Procedure: as §2, §3, §4

[12] = biological target: T2, human IL-36α(R12), truncated; assay: as above
Procedure: as §2, §3, §4

[13] = biological target: T3, cynomolgus IL-36α, truncated; assay: cell-based or functional assay
[14] = biological target: T2, human IL-36α(R12), truncated; assay: cell-based or functional assay
[15] = biological target: T3, cynomolgus IL-36α, truncated; assay: SPR, Biacore, 1:1 Langmuir fit; heads of c3 and c4 printed swapped
Procedure: as §1

[16] = biological target: T4, cynomolgus IL-36γ, truncated; assay: as above
Procedure: as §1

human IL-36γ, truncated [17] = biological target: T1, human IL-36γ, truncated; assay: as above
Procedure: as §1

[18] = biological target: T2, human IL-36α(R12), truncated; assay: as above
Procedure: as §1

[19] = biological target: T4, cynomolgus IL-36γ, truncated; assay: cell-based or functional assay
human IL-36γ, truncated [20] = biological target: T1, human IL-36γ, truncated; assay: cell-based or functional assay; remark: listed apart in the source
human IL-36γ, truncated [21] = biological target: T1, human IL-36γ, truncated; assay: cell-based or functional assay; remark: listed apart in the source
[22] = biological target: T5, human IL-36α (R&D Systems cat#6995-IL-010/CF) (human, UniProt Q9UHA7 6-158); assay: cell-based or functional assay
T5 sequence (looked up): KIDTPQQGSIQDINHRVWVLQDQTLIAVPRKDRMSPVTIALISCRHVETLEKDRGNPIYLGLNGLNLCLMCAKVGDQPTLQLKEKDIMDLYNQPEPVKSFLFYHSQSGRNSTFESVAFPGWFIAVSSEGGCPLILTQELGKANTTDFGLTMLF

IC50 of IL-8 secretion, primary human monocytes, 6 nM human IL-36γ, FIG. 5C (human IL-36γ, truncated [1]): 12 nM | IC50 of IL-8 secretion, primary human monocytes, 50 nM human IL-36γ, FIG. 5D (human IL-36γ, truncated [1]): 38.7 nM | IC50 of IL-8 secretion, primary human monocytes, 20 nM human IL-36α, FIG. 5A [2]: 27.1 nM | Kd [3]: 1.16 nM | Kd [4]: 0.288 nM | Kd (human IL-36γ, truncated [5]): 0.399 nM | Kd [6]: 1.53 nM | IC50 of IL-8 secretion, primary human keratinocytes, 8.4 nM human IL-36γ, FIG. 4C (human IL-36γ, truncated [7]): 9.28 nM | IC50 of IL-8 secretion, primary human keratinocytes, 6.25 nM human IL-36α, FIG. 4A [8]: 13.8 nM | Kd [9]: 1.28 nM | koff [9]: 0.000839 s⁻¹ | kon [9]: 658000 M⁻¹ s⁻¹ | Kd [10]: 0.312 nM | koff [10]: 0.000197 s⁻¹ | kon [10]: 631000 M⁻¹ s⁻¹ | Kd (human IL-36γ, truncated [11]): 0.377 nM | koff (human IL-36γ, truncated [11]): 0.000194 s⁻¹ | kon (human IL-36γ, truncated [11]): 516000 M⁻¹ s⁻¹ | Kd [12]: 1.67 nM | koff [12]: 0.000899 s⁻¹ | kon [12]: 539000 M⁻¹ s⁻¹ | IC50 of IL-8 secretion, HaCaT, 10 nM cynomolgus IL-36α, FIG. 2B [13]: 7.94 nM | IC50 of IL-8 secretion, HaCaT, 10 nM human IL-36α, FIG. 1C [14]: 14.5 nM | koff [15]: 0.00105 s⁻¹ | kon [15]: 905000 M⁻¹ s⁻¹ | koff [16]: 0.000326 s⁻¹ | kon [16]: 1.13e+06 M⁻¹ s⁻¹ | koff (human IL-36γ, truncated [17]): 0.000395 s⁻¹ | kon (human IL-36γ, truncated [17]): 990000 M⁻¹ s⁻¹ | koff [18]: 0.000785 s⁻¹ | kon [18]: 515000 M⁻¹ s⁻¹ | IC50 of IL-8 secretion, HaCaT, 10 nM cynomolgus IL-36γ, FIG. 2D [19]: 11.8 nM | IC50 of IL-8 secretion, HaCaT, 10 nM human IL-36γ, FIG. 1F (human IL-36γ, truncated [20]): 9.81 nM
B1: 144L249B (antibody, V domains shown)
VH: EVQLQQSGAELVKPGASVKLSCTASGFNIKDTYIYWVKQRPEQGLEWIGRIDPAIGTTRYDPKFQGKATLTADTSSNTAFLQLSSLTSEDTAVYYCARYDYSGSSFYFDYWGRGTTLTVSS
VL: QAVVTQESALTTSPGETVTLTCRSSTGAVTTSNYANWVQEKPDHLFTGLIGGTNNRAPGVPARFSGSLIGDKAALTITGAQTEDEAIYFCALWYSNHLVFGGGTKLTVL
notes: Mouse monoclonal from hybridoma; mouse IgG heavy and lambda light chain; also called mouse antibody 144L249B

Kd [3]: 0.927 nM | Kd [4]: 0.913 nM | Kd (human IL-36γ, truncated [5]): 0.795 nM | Kd [6]: 1.29 nM | koff [15]: 0.00135 s⁻¹ | kon [15]: 1.46e+06 M⁻¹ s⁻¹ | koff [16]: 0.000866 s⁻¹ | kon [16]: 948000 M⁻¹ s⁻¹ | koff (human IL-36γ, truncated [17]): 0.000706 s⁻¹ | kon (human IL-36γ, truncated [17]): 888000 M⁻¹ s⁻¹ | koff [18]: 0.00102 s⁻¹ | kon [18]: 791000 M⁻¹ s⁻¹ | IC50 of IL-8 secretion (AlphaLISA), HaCaT, 10 nM human IL-36γ (human IL-36γ, truncated [21]): 16.5 nM | IC50 of IL-8 secretion (AlphaLISA), HaCaT, 10 nM human IL-36α [22]: 7.68 nM
B2: 144L249B LV9 HV11 (antibody, V domains shown)
VH: QVQLVQSGAEVKKPGASVKVSCKASGFNIKDTYIYWVRQAPGQGLEWIGRIDPAIGTTRYDPKFQGKATLTTDTSTNTAYLELSSLRSEDTAVYYCARYDYSGSSFYFDYWGQGTLVTVSS
VL: QAVVTQEPSLTVSPGGTVTLTCRSSTGAVTTSNYANWVQEKPGQLFTGLIGGTNDRAPGVPARFSGSLLGGKAALTLSGAQPEDEADYFCALWYSNHLVFGGGTKLTVL
notes: Humanized

Kd [3]: 0.944 nM | Kd [4]: 1.13 nM | Kd (human IL-36γ, truncated [5]): 0.942 nM | Kd [6]: 1.39 nM | koff [15]: 0.00126 s⁻¹ | kon [15]: 1.34e+06 M⁻¹ s⁻¹ | koff [16]: 0.000969 s⁻¹ | kon [16]: 855000 M⁻¹ s⁻¹ | koff (human IL-36γ, truncated [17]): 0.000728 s⁻¹ | kon (human IL-36γ, truncated [17]): 772000 M⁻¹ s⁻¹ | koff [18]: 0.000989 s⁻¹ | kon [18]: 714000 M⁻¹ s⁻¹ | IC50 of IL-8 secretion (AlphaLISA), HaCaT, 10 nM human IL-36γ (human IL-36γ, truncated [21]): 20.7 nM | IC50 of IL-8 secretion (AlphaLISA), HaCaT, 10 nM human IL-36α [22]: 6.61 nM
B3: 144L249B LV9 HV10b (antibody, V domains shown)
VH: QVQLVQSGAEVKKPGASVKVSCKASGFNIKDTYIYWVRQAPGQGLEWIGRIDPAIGTTRYDPKFQGKATLTTDTSTSTAYLELSSLRSEDTAVYYCARYDYSGSSFYFDYWGQGTLVTVSS
VL: QAVVTQEPSLTVSPGGTVTLTCRSSTGAVTTSNYANWVQEKPGQLFTGLIGGTNDRAPGVPARFSGSLLGGKAALTLSGAQPEDEADYFCALWYSNHLVFGGGTKLTVL
notes: Humanized

Kd [3]: 1 nM | Kd [4]: 0.91 nM | Kd (human IL-36γ, truncated [5]): 0.789 nM | Kd [6]: 1.37 nM | koff [15]: 0.0014 s⁻¹ | kon [15]: 1.4e+06 M⁻¹ s⁻¹ | koff [16]: 0.000831 s⁻¹ | kon [16]: 913000 M⁻¹ s⁻¹ | koff (human IL-36γ, truncated [17]): 0.000678 s⁻¹ | kon (human IL-36γ, truncated [17]): 859000 M⁻¹ s⁻¹ | koff [18]: 0.00103 s⁻¹ | kon [18]: 749000 M⁻¹ s⁻¹ | IC50 of IL-8 secretion (AlphaLISA), HaCaT, 10 nM human IL-36γ (human IL-36γ, truncated [21]): 25.8 nM | IC50 of IL-8 secretion (AlphaLISA), HaCaT, 10 nM human IL-36α [22]: 9.2 nM
B4: 144L249B LV7a HV11 (antibody, V domains shown)
VH: QVQLVQSGAEVKKPGASVKVSCKASGFNIKDTYIYWVRQAPGQGLEWIGRIDPAIGTTRYDPKFQGKATLTTDTSTNTAYLELSSLRSEDTAVYYCARYDYSGSSFYFDYWGQGTLVTVSS
VL: QAVVTQEPSLTVSPGGTVTLTCRSSTGAVTTSNYANWVQQKPGQAFTGLIGGTNDRAPGVPARFSGSLLGGKAALTISGAQPEDEADYFCALWYSNHLVFGGGTKLTVL
notes: Humanized
